Here are results for 1 molecule from patent US20210063414A1, “METHODS FOR PREVENTING AND/OR TREATING BONE LOSS CONDITIONS BY MODULATING IRISIN” (Dana-Farber Cancer Institute, Inc., priority 2018, published 2021).

The target in experiment [1] is T1, MLO-Y4 cell surface proteins (Mus musculus, UniProt Q9D3P1).
T1 construct: endogenous in cells; host or cells: MLO-Y4
T1 sequence (Q9D3P1 1-638): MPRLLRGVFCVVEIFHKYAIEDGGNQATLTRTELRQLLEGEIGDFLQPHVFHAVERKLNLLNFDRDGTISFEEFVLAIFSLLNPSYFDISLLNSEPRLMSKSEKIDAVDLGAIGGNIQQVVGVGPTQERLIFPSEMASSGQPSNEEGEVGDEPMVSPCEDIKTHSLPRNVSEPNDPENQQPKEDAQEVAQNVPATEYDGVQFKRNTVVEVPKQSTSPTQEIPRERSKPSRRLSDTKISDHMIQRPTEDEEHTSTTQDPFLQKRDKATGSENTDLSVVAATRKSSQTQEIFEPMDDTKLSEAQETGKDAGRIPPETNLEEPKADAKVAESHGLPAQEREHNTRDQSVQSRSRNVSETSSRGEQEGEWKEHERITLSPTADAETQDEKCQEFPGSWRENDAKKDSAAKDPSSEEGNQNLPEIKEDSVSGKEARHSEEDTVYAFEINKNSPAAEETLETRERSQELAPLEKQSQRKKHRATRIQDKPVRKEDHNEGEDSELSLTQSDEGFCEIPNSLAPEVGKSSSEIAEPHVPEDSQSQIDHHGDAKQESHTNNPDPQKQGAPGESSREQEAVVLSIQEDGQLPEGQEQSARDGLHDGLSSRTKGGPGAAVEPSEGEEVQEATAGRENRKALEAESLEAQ
The experiment is described as follows: Crosslinking/co-immunoprecipitation/mass spectrometry (TMT quantitative proteomics) to identify irisin receptors. It is filed as binding. Conditions: co-precipitated protein Tchhl1 (TCHL1_MOUSE). The method, boiled down: (§1)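 Mouse MLO-Y4 cells were switched to serum-free FreeStyle medium for 4 h, chilled, then exposed to 10 nM His-tagged irisin (or adipsin as control) for 20 min. Cells were crosslinked with 1.5 mM DTSSP (30 min, ice), and bound proteins were pulled down on Ni-NTA and eluted with 250 mM imidazole. Eluates were separated by SDS-PAGE, trypsin-digested in gel, TMT 6-plex labelled and quantified by MS3-based LC-MS/MS on an Orbitrap Fusion Lumos.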

The target in experiment [2] is T2, MLO-Y4 cell surface proteins (Mus musculus, UniProt Q8BJQ9).
T2 construct: endogenous in cells; host or cells: MLO-Y4
T2 sequence (Q8BJQ9 1-530): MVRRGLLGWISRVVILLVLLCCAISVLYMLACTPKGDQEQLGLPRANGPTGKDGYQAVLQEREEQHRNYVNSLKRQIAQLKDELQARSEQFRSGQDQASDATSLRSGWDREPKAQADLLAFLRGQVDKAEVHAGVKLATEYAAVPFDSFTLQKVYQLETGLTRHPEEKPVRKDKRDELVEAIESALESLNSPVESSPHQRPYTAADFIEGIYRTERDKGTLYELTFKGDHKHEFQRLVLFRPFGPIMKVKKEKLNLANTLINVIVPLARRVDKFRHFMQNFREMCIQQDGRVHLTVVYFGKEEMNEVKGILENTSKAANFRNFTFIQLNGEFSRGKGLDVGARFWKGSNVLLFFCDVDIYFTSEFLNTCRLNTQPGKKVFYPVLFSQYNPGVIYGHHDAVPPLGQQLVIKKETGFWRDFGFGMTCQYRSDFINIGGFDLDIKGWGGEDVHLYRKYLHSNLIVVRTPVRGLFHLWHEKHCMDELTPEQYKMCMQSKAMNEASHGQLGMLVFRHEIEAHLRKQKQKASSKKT
The description is as above. It is filed as binding. Conditions: co-precipitated protein Csgalnact1 (CGAT1_MOUSE). The method, boiled down:
as §1

B1: irisin: secreted cleaved form of FNDC5; recombinant human/mouse irisin with C-terminal his tag produced in HEK293 cells (protein)
chain: DSPSAPVNVTVRHLKANSAVVSWDVLEDEVVIGFAISQQKKDVRMLRFIQEVNTTTRSCALWDLEEDTEYIVHVQAISIQGQSPASEPVLFKTPREAEKMASKNKDEVTMKE
modifications: left off: small tags and cut ends
notes: secreted cleaved form of FNDC5; recombinant human/mouse irisin with C-terminal his tag produced in HEK293 cells
As for B1, in experiment [1], the TMT signal-to-noise ratio is on record as 23.5307 and the “irisin/adipsin TMT signal-to-noise ratio” value is listed as 0.013. Moreover, in experiment [2], the TMT signal-to-noise ratio is 1300.88 and the “irisin/adipsin TMT signal-to-noise ratio” value is 0.536.
